Test results: publication PMC8196545 (Cell reports, 2021)

Columns and labels:
[1] = biological target: gp120 JR-CSF (recombinant) (HIV-1, UniProt P20871); test: ELISA
[2] = biological target: HIV-1 NL4-3 Env on infected cells (HIV-1 group M subtype B, NL4-3 (pNL4-3 …, strain)); test: flow cytometry on cells

B1: HC antibody RI5281 (IgG1) (antibody, V domains shown)
VH: QVRLAEFGGGVVRPGESLTLSCATSGFSFTSYGMHWVRQTPGKGLEWVAVIWNDGSRRYYSDSVQGRFTIAKDFANKTLSLQMRDLRVGDTAVYFCARAYGPQSEIDSWGQGILVTVSS
VL: SYGLTQPSSVSVSPGQTAIITCFGNILPRKSAYWYRQTAGRAPTLVIFGDNNRPSGIPARFSGFTAGTVATLVIAATQVDDEGDYYCYSADNSGNHRGVFGGGTKLTVL
[1]
  binding result: binds
[2]
  binding result: binds
